Entries after “also recorded” stand apart in the source; their conditions may differ.
Columns and labels:
[1] = tested on: eosinophils; assay: Example 4: % eosinophils of WBC in blood; format: in vivo, pigs; conditions: blood the day after treatment, end of weaner period
From the text: Blood and sera samples collected at the start (before treatments) and end of the weaner period. Blood and sera were taken prior to injecting samples.
Blood was taken the day after IL-5 and saline treatments and represent a single time point only. […] As a general observation IL-5 plus medication had higher eosinophils numbers than the IL-5 without antibiotics.

[2] = Example 4: growth performance of pigs administered IL-5 in a commercial piggery; format: in vivo; design: average weight, higher than saline medicated controls / rate of gain (ROG), increase over saline medicated control / increase in total weight compared to saline medicated control group / increase in weight gain compared to saline medicated control group / increase in average weight compared to saline medicated control group: concentration or dose not given beside the values
Protocol: (§1) This trial evaluated the capacity of IL-5 to improve growth performance and immunity of pigs by comparing the growth rate and health of weaner pigs (28 day old weaners is Day 0 of the trial and the weaner period continued for 42 days) through to the finisher stage (Days 93 to 113) and slaughter (133 days after commencing the trial). The pigs were administered recombinant porcine cytokine, IL-5, and saline was used as a control, with and without standard weaner medicated water and feed in a commercial piggery environment.
(§2) 40 pigs per treatment mixed in-groups of 20, with 4 replicates containing standard medicated water and feed and 4 replicates without medicated feed or water.
Overall weights for each group at the start of the experiment were equivalent. All pigs at the start of the trial (Day 0) were 28 day old male weaners.
IL-5 was provided in saline to inject one ml/pig.
Weights were measured at the start, weekly and at end of the experiment. The original proposal was designed for measuring weight over the weaner period; however, due to significant growth responses with IL-5 administration the measurement of weight continued to slaughter (pigs were 161 days old).
Recombinant porcine IL-5 was expressed in E. coli and purified using a polyHis tag system as described in Qiagen Inc, USA, instructions and Clontech, USA, Talon Manual instructions. IL-5 was tested for biological activity in a bioassay prior to the start of the experiment.
At the start of the trial, the mean weights and variance for each group were equalised. Thus, the increase in total or average weights witnessed in the IL-5 medicated group was due to IL-5 administration and not simply due to differences between weights at the start of the trial.

[3] = tested on: haemorrhagic E. coli; assay: Example 6: haemorrhagic E. coli challenge of weaner pigs; format: in vivo; design: decrease in faecal shedding (total faecal culture scores) compared to saline treated controls / reduction in clinical signs compared to saline controls / reduction in E. coli culture scores at post-mortem compared to saline controls / reduction of bacterial load in the small intestine (foregut) compared with saline controls: concentration or dose not given beside the values
Protocol: Male weaner pigs, with a mean weight of 5.4 kg were allocated to groups of 8, with the mean weight being equalised between groups. Pigs were housed in group pens. Pigs were provided with pelleted feed and water ad libitum.
Pigs were treated with cytokines or the antibiotic, Apralan, and challenged with E. coli according to the schedule outlined in FIG. 42. E. coli were delivered orally in an 8 ml dose containing 10^8 cfu/ml. Blood was sampled from pigs by venipuncture at −2 days, day 0, and +6 days from initial challenge with E. coli as outlined in FIG. 42. Blood was assayed for immunological parameters as previously described. Pigs were weighed at day −2 and at the end of the trial on day 7.
Faecal samples were taken from each pig daily from day 2 to day 6 after challenge; these samples were cultured on sheep blood agar to quantify E. coli load. The condition of faeces on each day of challenge was noted as normal, wet or diarrhoea, as an indication of clinical signs.
At the conclusion of the experiment, pigs were euthanased and samples were taken from different areas in the gastro-intestinal tract, including the small intestine (25%, 50% and 75% along the length of the small intestine), the caecum and colon, and from the faeces. These post-mortem samples were also plated out on sheep blood agar to quantify E. coli load. Growth on sheep blood agar was scored from 0 to 5 (where 0 was no growth, 1 signified growth in the primary inoculum, 2 signified growth in the first streak, 3 signified growth in the 2nd streak, 4 signified growth in the 3rd streak, and 5 signified growth of E. coli in the final streak), and group means and standard errors were calculated.

[4] = tested on: H. parasuis, APP and Swine dysentry; assay: Example 4: deaths and production loss from infectious disease; format: in vivo, pigs; conditions: for number of deaths during trial: 20 per group; for deaths (autopsy report summary) / production loss (deaths from infectious disease or weight loss): weaner period
Protocol: as §1, §2
These are possibly a reflection of resistance to infections as all pigs were subjected to a severe exposure of pathogens (deaths occurred from H. parasuis “Glasser's”, APP and Swine dysentry).
The production loss in terms of deaths from infectious disease or weight loss as measured by weekly weighing is shown in FIG. 13. No deaths occurred in the IL-5 medicated group (FIG. 13), a factor that influenced the positive effect of IL-5 on increasing total group weight as described above (FIG. 10). The majority of deaths also included prior weight loss, but were recorded as deaths only. The antibiotic medicated groups had reduced numbers of pigs that lost weight during 1 or more weeks during the weaner period compared to the un-medicated groups. The first week after weaning was where the majority (>80%) of pigs lost weight.

[5] = end of the treatment period, 1st trial, IL-5 plus medication

B1: interleukin 5 (protein, UniProt Q9MYM5 22-134, looked up)
Interleukin-5: VENTMNRLVAETLTLLSIHRTLLIGDGNLMISTPVHTNHQLCIEEVFQGIDTLKNQTARGDAVEKLFQNLSLIKEYIDRQKKNCGGERWRVTQFLDYLQVFLGVINTEWTMES
notes: recombinant porcine IL-5 protein expressed in E. coli; + / − = with / without antibiotic medicated feed and water, +p = weaner period only
**Q.** For B1, which “% eosinophil cells of WBC” value [1] is on record?
**A.** substantial effect on % eosinophil cells of WBC in both the medicated and un-medicated groups

**Q.** What about the “consistency of growth performance (individual weights at end of weaner period)” value ([2]; IL-5 medicated group) of the same molecule?
**A.** more consistent than all other groups

**Q.** What about the “average weight, higher than saline medicated controls” value ([2]; IL-5 medicated group, Week 1) of the same molecule?
**A.** 5.5%

**Q.** What about the “rate of gain (ROG), increase over saline medicated control” value (“rate of gain (ROG), increase” below) ([2]; IL-5 medicated group, Week 1) of the same molecule?
**A.** 45.6%

**Q.** What about the “total combined group weight, higher than saline medicated group” value ([2]; IL-5 medicated group, Week 1) of the same molecule?
**A.** 5.5%

**Q.** And the “average weight, higher than saline medicated controls” value ([2]; IL-5 medicated group, Week 2)?
**A.** 6.3%

**Q.** And the “rate of gain (ROG), increase” value ([2]; IL-5 medicated group, Week 2)?
**A.** 19.6%

**Q.** And the “total combined group weight, higher than saline medicated group” value ([2]; IL-5 medicated group, Week 2)?
**A.** 6.3%

**Q.** And the “average weight, higher than saline medicated controls” value ([2]; IL-5 medicated group, Week 3)?
**A.** 8.8%

**Q.** What about the “rate of gain (ROG), increase” value ([2]; IL-5 medicated group, Week 3) of the same molecule?
**A.** 18.2%

**Q.** What about the “total combined group weight, higher than saline medicated group” value ([2]; IL-5 medicated group, Week 3) of the same molecule?
**A.** 8.8%

**Q.** And the “average weight, higher than saline medicated controls” value ([2]; IL-5 medicated group, Week 4)?
**A.** 5.5%

**Q.** What about the “rate of gain (ROG), increase” value ([2]; IL-5 medicated group, Week 4) of the same molecule?
**A.** 8.8%

**Q.** What about the “total combined group weight, higher than saline medicated group” value ([2]; IL-5 medicated group, Week 4) of the same molecule?
**A.** 11.1%

**Q.** What about the “average weight, higher than saline medicated controls” value ([2]; IL-5 medicated group, Week 5) of the same molecule?
**A.** 7.8%

**Q.** What about the “rate of gain (ROG), increase” value ([2]; IL-5 medicated group, Week 5) of the same molecule?
**A.** 11.3%

**Q.** What about the “total combined group weight, higher than saline medicated group” value ([2]; IL-5 medicated group, Week 5) of the same molecule?
**A.** 13.4%

**Q.** What about the “average weight, higher than saline medicated controls” value ([2]; IL-5 medicated group, Week 6) of the same molecule?
**A.** 6.8%

**Q.** What about the “rate of gain (ROG), increase” value ([2]; IL-5 medicated group, Week 6) of the same molecule?
**A.** 9.1%

**Q.** What about the “total combined group weight, higher than saline medicated group” value ([2]; IL-5 medicated group, Week 6) of the same molecule?
**A.** 18.6%

**Q.** And the “average weights during weaner period” value ([2]; IL-5 un-medicated group vs un-medicated saline controls)?
**A.** consistently small increase in average weights over the un-medicated saline controls except for the last week

**Q.** What about the “increase in average weight compared to saline medicated control group” value [2, 5] of the same molecule?
**A.** 7%

**Q.** What about the “increase in total weight compared to saline medicated control group” value [2, 5] of the same molecule?
**A.** 18%

**Q.** And the “increase in weight gain compared to saline medicated control group” value [2, 5]?
**A.** 9%

**Q.** What about the “average weights of individual pigs during trial” value ([2]; medicated) of the same molecule?
**A.** consistently higher average weights than all other groups

**Q.** What about the “increase of average warm carcass weight over the medicated saline control” value ([2]; medicated) of the same molecule?
**A.** 6 kg

**Q.** What about the “rate of gain over the weaner period” value ([2]; medicated) of the same molecule?
**A.** consistently increased the rate of gain in the medicated pigs

**Q.** And the “total weights of all pigs in group over the entire production period” value ([2]; medicated)?
**A.** significant increase in total weights compared to all other groups

**Q.** What about the warm carcass weight ([2]; medicated with antibiotics, vs saline controls) of the same molecule?
**A.** increased warm carcass weight compared to saline controls when pigs were medicated with antibiotics

**Q.** And the individual final weights ([2]; medicated, all pigs of group)?
**A.** above 90 kg

**Q.** What about the “total combined group weight above saline medicated group” value ([2]; over 6 weeks for a group of 20 pigs, medicated) of the same molecule?
**A.** 89 kg

**Q.** What about the “rate of gain over the weaner period” value ([2]; un-medicated) of the same molecule?
**A.** generally higher than the un-medicated saline control

**Q.** What about the “variation in individual pig weights” value ([2]; up to slaughter) of the same molecule?
**A.** reduced variation in individual pig weights up to slaughter

**Q.** What about the “dressing percentage of carcasses at slaughter” value ([2]; with or without antibiotics, vs saline controls) of the same molecule?
**A.** improved dressing percentage regardless of antibiotic administration; also recorded: significantly higher % dressing than the respective saline controls

**Q.** And the “clinical signs (wet faeces or diarrhoea)” value ([3]; 5 days after challenge)?
**A.** fewer recorded cases of wet faeces and diarrhoea than saline controls or Apralan treatment

**Q.** What about the “E. coli shedding in faeces (faecal culture)” value ([3]; day 2 to day 6 after challenge) of the same molecule?
**A.** decreased E. coli shedding in faeces

**Q.** What about the “decrease in faecal shedding (total faecal culture scores) compared to saline treated controls” value ([3]; entire challenge period) of the same molecule?
**A.** 43%

**Q.** And the “reduction in E. coli culture scores at post-mortem compared to saline controls” value ([3]; gastro-intestinal tract total)?
**A.** 15%

**Q.** And the “appetite (daily feed intake per pig) during E. coli challenge” value ([3]; pig, in vivo)?
**A.** improved appetite compared to saline treated pigs

**Q.** What about the “bacterial load in areas of the gastro-intestinal tract at post-mortem” value ([3]; pig, in vivo) of the same molecule?
**A.** reduced bacterial load in most areas of the gastro-intestinal tract

**Q.** What about the “days after challenge with bacterial shedding significantly less than saline treated controls” value ([3]; pig, in vivo) of the same molecule?
**A.** 3/5

**Q.** And the “group mean total E. coli culture score at post-mortem (out of a possible 30)” value ([3]; pig, in vivo)?
**A.** less than 15

**Q.** And the “reduction in clinical signs compared to saline controls” value ([3]; pig, in vivo)?
**A.** 64%

**Q.** And the “reduction of bacterial load in the small intestine (foregut) compared with saline controls” value ([3]; post-mortem)?
**A.** 36%

**Q.** And the “number of deaths during trial” value ([4]; Final (Day 133), medicated)?
**A.** 0

**Q.** What about the “number of deaths during trial” value ([4]; Final (Day 133), un-medicated) of the same molecule?
**A.** 3

**Q.** What about the “number of deaths during trial” value ([4]; Weaner (Day 42), medicated) of the same molecule?
**A.** 0

**Q.** And the “number of deaths during trial” value ([4]; Weaner (Day 42), un-medicated)?
**A.** 2

**Q.** What about the “condition and health of pigs” value ([4]; medicated) of the same molecule?
**A.** excellent condition and health compared to other groups

**Q.** And the “deaths (autopsy report summary)” value ([4]; medicated)?
**A.** No deaths or intervention

**Q.** What about the “production loss (deaths from infectious disease or weight loss)” value ([4]; medicated) of the same molecule?
**A.** no pig from the medicated IL-5 treatment group lost weight or died from infectious disease

**Q.** And the “production loss (deaths from infectious disease or weight loss)” value ([4]; un-medicated)?
**A.** reduced production loss

**Q.** And the “deaths (autopsy report summary)” value ([4]; unmedicated)?
**A.** 2x H. parasuis
